{
  "source": "the DeepSol protein solubility set",
  "data": [
    {"assay": "soluble on expression in E. coli; label from the status in PepcDB or PDB records", "values": [
      {"sequence": "MEKTVIGVVHLLPLPGSPEHTDLSAVIDKAVKDARAIEEGGADALILENYGDKPFLKEVGKETVAAMTVIACEVKRDVSIGLGINVLRNDAVAALAIAKAVNADFVRVNQLFFTSVSPEGILEGKAGEVMRYKKLVDCRAMIFADIAVKHAVHFASLEDYCLNAERSLADAVILTGKTTGGEVSLEELKYAKKTLKMPVLAGSGVNAENAARILKWCDGVIVGTYIKRGGLVDAERVRRIVRAAKGLEHHHHHH", "soluble on expression in E. coli": "not soluble"},
      {"sequence": "MKQIYFGGGCFWGTQKYFDLIKGVQKTSVGYLNSNMKNPTYEQVCSGQTNAVEAVFVEYDENKVSLNELIDAFFKVIDPTIRNRQGNDIGTQYRTGVYWVDPQDEQLITQKFRELQANYPKPIVTENRAMENYFLAEEYHQDYLKKNPHGYCHIKFD", "soluble on expression in E. coli": "soluble"},
      {"sequence": "MGSDKIHHHHHHMRKERDYLGKLEIEGEVYYGIHTKRALMNFPSTGEKLDETFIWAYFMVKKACALLNTELGYLDERTGNAIVKACDEWEDLKKHVVVDPLSGGAGTSINMNVNEVIANRATEILGGKKGEYLVDPIDHVNLHQSTNDTFPTSAKIATIVKLRRLIDEVINLQEKIQEKEKEFYSIRKPGRTQLMDGPPIMLGQEFGAFADALARDRWRLYKVEERIRSVNIGGTAIGTGVGAPKDYILKIVEKVREVTKVKIAKAENLIDATQNWDVFAEVHGLLKSLAVNLYKISNDIRLLGSGPNTVIGELILPAVQAGSSIMPGKINPVVSEYVMQICHMVFGHDMILNHACALGNLELNQFAPLIVHLTLKSLTLLTNACRSLASYISKIKANNERCEEHLRRSVSNLTPLIKLFGYEAVSEAIKKANWDIKKAVEILSQEKNIPVEEILKVLNLKKMTGLGYSL", "soluble on expression in E. coli": "not soluble"},
      {"sequence": "MDSIGGVLNTMKKNLLITLALIIMSHHSAYAQDELTYIPIPKANQIADLNDLDKDGVINARDLCAGTPIGAEVDNDGCETYLHKEEQYQLK", "soluble on expression in E. coli": "not soluble"},
      {"sequence": "MPIVNQSSLVPYSAEQMYQLVNDYEKYPQFLSGCIGAKTISRGNNELEAELQIQKLGISQSFSTHNKMLPNERIEMKLVNGPFRQLQGAWNFQPFDEQSCKISLYLEFEFSNPVVGMVFGKIFNELTLKMVNAFKQRAKEVYGVLEHHHHHH", "soluble on expression in E. coli": "soluble"},
      {"sequence": "MSLTAHRIGFLVWPGTKAMTLALAEEALRVAQRVHPEVVYELSFLQAELAEPAAVAGGWQLPGEPWTGRLEGLQKLFLLADEPPAAVAPALGSALKQLVRAGCSIGGLSAGVYPLAQLGLLDGYRAAVHWRWQDDFAERFPKVIATSHLFDWDRDRLTACGGMSVLDLLLAVLSRDHGAELAGAVSEELVVERIREGGERQRIPLQNRLGSSHPKLTQAVLLMEANIEEPLTTDEIAQHVCVSRRQLERIFKQYLNRVPSQYYLELRLNKARQMLMQTSKSIIQIGLSCGFSSGPHFSSAYRNFFGATPREDRNQRRSSSPFELSPVPAKGIITITTDPNSSSVDKLAAALEHHHHHH", "soluble on expression in E. coli": "soluble"},
      {"sequence": "MHHYRVSGWTLATEIPLPHLFPCSAPAGEAAADITLRQGPVPPPPVPLRLDRDGIQVGADGHTVIDIPNCVRIGLTGGRDIMVDPAPGASWPEIQTWLLGPGLGVICHQRGVLPLHACAIRTGKGGLAIVGNSGAGKSTTATALVQRGHRLLGDDVLVVDPDTGLAQPCFPMVKLWDSSRSALDIGQEGQQSVGGKIGKWHMPMLAAFDPVPRPLSAIVHLRADPAARRPVLTRWPRPHAAAVLDAMTYRVYLADALHGRRHVLSAATRLAAHVPVWELVRTADFADLAEMLDMLEGLAGALEHHHHHH", "soluble on expression in E. coli": "not soluble"},
      {"sequence": "MGSDKIHHHHHHMAQVLWIIQIISKGLVRTLRFKAHILRMILLGSLGVAIHVSVVNAAVTDNSLPQESIPLVQGFIDAVKAHDRQAIADYMAYPIKRTNPIPAINTPEELLKRFDQVFDPEILETIAQSQVEADWQAMGWRGIMLGSGTIWMDFDGKITAVNYQTPAETKLKAELIANQKTGLHESVSQFVSPELAWQTAKFTIRVDNMGNSQYRYASWAKGKPLSEKPDLVLNQGKLVFDGSGGNHSFQFTSGPYLYVCDVIVLGTSDSPIGELVVFKHDRVLLREPAIKAE", "soluble on expression in E. coli": "not soluble"},
      {"sequence": "MNVYHYETSGGKDLILEYIDGLPKNEKAEGLTILEKLEKEGLEALEVLNTRQLRGKLWEIKFYRSNRIMYVVADEDNIYLVHACKKQKGKAEKFELDTAIKRVKELEKELGKKFI", "soluble on expression in E. coli": "not soluble"},
      {"sequence": "GPGSMPALKPLLVFGLRGTLVERIHVRHVPEGMPAADFTVGLVKVWLRPHMVEVLNELQEHCRLAIWSSTTARNTHPLVNAVFGSNMTLQAGAGATTAAPARQEAASASAVVAASASNGRSGRFGTKRRPTKAEAADEESASEAAINAPKPQRVHFEFVWTREHTRVDDFRRLNAAVNDDSHATVKDLSQVFAQFPSIAQPQNTVLIDDTPSKAKMQADNYLWLDTCSNLRIKDETSLYRLRDFVMRELVPAEDVRELLPRRIRM", "soluble on expression in E. coli": "soluble"},
      {"sequence": "MGSDKIHHHHHHMSILYEERLDGALPDVDRTSVLMALREHVPGLEILHTDEEIIPYECDGLSAYRTRPLLVVLPKQMEQVTAILAVCHRLRVPVVTRGAGTGLSGGALPLEKGVLLVMARFKEILDINPVGRRARVQPGVRNLAISQAVAPHNLYYAPDPSSQIACSIGGNVAENAGGVHCLKYGLTVHNLLKIEVQTLDGEALTLGSDALDSPGFDLLALFTGSEGMLGVTTEVTVKLLPKPPVARVLLASFDSVEKAGLAVGDIIANGIIPGGLEMMDNLSIRAAEDFIHAGYPVDAEAILLCELDGVESDVQEDCERVNDILLKAGATDVRLAQDEAERVRFWAGRKNAFPAVGRISPDYYCMDGTIPRRALPGVLEGIARLSQQYDLRVANVFHAGDGNMHPLILFDANEPGEFARAEELGGKILELCVEVGGSISGEHGIGREKINQMCAQFNSDEITTFHAVKAAFDPDGLLNPGKNIPTLHRCAEFGAMHVHHGHLPFPELERF", "soluble on expression in E. coli": "not soluble"},
      {"sequence": "GSSEDKITVHFINRDGETLTTKGKIGDSLLDVVVQNNLDIDGFGACEGTLACSTCHLIFEQHIFEKLEAITDEENDMLDLAYGLTDRSRLGCQICLTKAMDNMTVRVPDAVSDARESIDMGMNSSKIE", "soluble on expression in E. coli": "soluble"},
      {"sequence": "MGSDKIHHHHHHVTILSPKAVPAPAASDAYGFGDRLTADFPSQINVDVTEVCNLACVHCPHPQFKKSVHYAGRMLDPALNDKMVEEVRDHGQGRVGYIRYTAAGEPMAHPAIFPMLAKAVARSGTTVSLTTNGMLLDEGRRARLLETGIHLIDISIDAFLPETYARVRVGGDLERVRGGVLRLMEGAARRVDPPKIVVSFVEQPFNQGETADFERFWKENGAAYVVIRRLHSCAGAAQDLAATLRVEQGETRRPCLYPWERIVLNPSGQLSFCPADWAHGAAIAEYRDTTIREVWQGPFYRALREAHLTNSYANHGFCGQCPDWASTRWPKQGRSYADMVQDFKETE", "soluble on expression in E. coli": "not soluble"},
      {"sequence": "MGSDKIHHHHHHMRIDTVNVLLEALPYIKEFYGKTFVIKFGGSAMKQENAKKAFIQDIILLKYTGIKPIIVHGGGPAISQMMKDLGIEPVFKNGHRVTDEKTMEIVEMVLVGKINKEIVMNLNLHGGRAVGICGKDSKLIVAEKETKHGDIGYVGKVKKVNPEILHALIENDYIPVIAPVGIGEDGHSYNINADTAAAEIAKSLMAEKLILLTDVDGVLKDGKLISTLTPDEAEELIRDGTVTGGMIPKVECAVSAVRGGVGAVHIINGGLEHAILLEIFSRKGIGTMIKELEG", "soluble on expression in E. coli": "not soluble"},
      {"sequence": "MSKTYHFIGIKGSGMSALALMLHQMGHNVQGSDVDKYYFTQRGLEQAGVTILPFSPNNISEDLEIIAGNAFRPDNNEELAYVIEKGYQFKRYHEFLGDFMRQFTSLGVAGAHGKTSTTGLLAHVLKNITDTSFLIGDGTGRGSANANYFVFEADEYERHFMPYHPEYSIITNIDFDHPDYFTGLEDVFNAFNDYAKQVQKGLFIYGEDPKLHEITSEAPIYYYGFEDSNDFIAKDITRTVNGSDFKVFYNQEEIGQFHVPAYGKHNILNATAVIANLYIMGIDMALVAEHLKTFSGVKRRFTEKIIDDTVIIDDFAHHPTEIIATLDAARQKYPSKEIVAIFQPHTFTRTIALLDEFAHALSQADSVYLAQIYGSAREVDNGEVKVEDLAAKIVKHSDLVTVENVSPLLNHDNAVYVFMGAGDIQLYERSFEELLANLTKNTQ", "soluble on expression in E. coli": "not soluble"},
      {"sequence": "MDNVSNVRTGGCHCGAVRFEVTLSDGFDSIRRCTCSYCRMRGAVVAMAEMGGIKILQGEEVLTTYRFHTRAAQHFFCSRCGIYTHHQRRSNQNLYAVNVACLDGVSPFDFTEVPVMDGINHTNDTGQPTRRAGTLRFIASE", "soluble on expression in E. coli": "not soluble"},
      {"sequence": "MAKYFDIDDILIEEEFVPVLFHKTANGVTIDPSAETNCVSLLIPSAKAEQGSKVELPFWLAHELHLRQAVTINLPPCFDQKTRLEVQADAAYVDLRSRCPYFYEFGCKIEPLVTDRTLGILLSTAFKIRYKEALTKVYTAAHITASKYLSFLTKEETNLYEAAHLSMTAFKKWRTGGPRFQRASILGRKRKDSN", "soluble on expression in E. coli": "soluble"},
      {"sequence": "MSWTVDIPKEALPDLPPLPDGLQQQFENVIARDAKQQPSWDKATAETVRKILESVPPIVVAPEVRELKQHLADVANGRAFLLQGGDCAETFESNTEPHIRANIKTLLQMAVVLTYGASTPVVKMARIAGQYAKPRSSDLDANGLPNYRGDIVNGVEATEEARRHDPARMIRAYANSSAASNLVRALTSSGTADLHRLTGWNREFVASSPAGARYEALAQEIERGLRFMSACGVNDHTLHSADIFCSHEALVVDYERAMLRLAEDEEGNVELYDLSAHQLWIGERTRGLDDFHVNFAAMIANPIGIKIGPTATPEEVVAYANKLDPNFVPGRLTIVARMGHDKVRDVLPGIVKAVEESGHKVIWQSDPMHGNTFTSSNGYKTRHFDKVIDEVQGFFEVHRALGTHPGGIHIEFTGENVTECLGGAEDITDVDLPGRYESACDPRLNTQQSLELSFLVAEMLRN", "soluble on expression in E. coli": "not soluble"},
      {"sequence": "MAEPKWPSSAKTLPFKFMKEARNPCTRAQKLCSTHRRAAAPPSFSVHLTQKSENSSSEESDHQFASPTSPRPSSSDSFGPSAAPSTSLSPPFLSPSYSMDYIIEAMTSSSSTSPVPPPVSASRPVAPVVARVEGLRAVPVGHRRQHSSPGHLQQFQQELHARHHHANITRLNKKRRNTDTGYDPEARPPKFKHRSPLDEETILVSKTFAIPKYRKGALPAAAAAVVRNEALMDSSDSSDSQSTVKSLDGWRTRTSRSIMTTPEAFSRVRHISITFGEQQHDIDTDHSNQHFGSPSSLHSSLPRAFSPPHKISKARRRQLAVTTSLSETSAFPIPSSLKARSRMSSMSSTQADDEHPISMQNMRNIALGILVPIKQRFFLMQHIPLIEAEMSRFESRVVTAALHPSTFLQNISKSWEELTETVCQLHNAPRLRHPYWLALNEKCHLDGRTLATEFCEQLAYLVRRYDRKEAGYFLSNLVTALLMHHMSWVASVASPPLHNADSKDQIDENSLFGMMSSGAPTVGYNALMAQYLEISGACGNMRSAKICVVGEDLEVLASVCSVLSFFIRCSAVQHVDNDKMWEVPTEQPFSPCDVSNSPSTSCAHQHQQQQQLKNGYQHPEETSSVAMMRRLRNNNQMDTSSTPSTSTAAALLDADVEMVVQTTTEITSTTTTTPRHHHLHHLHSVTIDRLDFPCCPTIADDADMWVPQRPNSEGLGRSMFAGPLNNYCSHFVLSAVQKTDTNMPEVYSRMFDEVRCTDFPCHRSATATPSQSTSSMCDPAMNPENVLIIADIEQLTVKVLSTEGSDEVTSPSESIVAMLEQFVGIHNAVPANAEFLVGIIEDSLAHIVGKSLTLVELVRSDQTVRIQGSERAKKSKILAKIEILLAVCPEIGNFSKFEFPSYRALK", "soluble on expression in E. coli": "not soluble"},
      {"sequence": "MAKVIFDENRCKGCKLCTTVCPKKIVVMNEDKLNQKGFHPAGVVDMDKCIGCAFCATICPDCVIEVYK", "soluble on expression in E. coli": "not soluble"}
    ]}
  ]
}
